Reference: article PMC5482323

Assays:
[1] = molecular target: basigin (Homo sapiens) (UniProt P35613); settings: cited from earlier work
[2] = molecular target: basigin (CD147), Ig domains 1 and 2 of the short isoform (aa 22-205) (UniProt P35613); experiment: SPR; BIAcore T200; basigin immobilised on a CM5 chip by amine coupling (950 RU); PfRH5 injected as a twofold dilution series from 2 uM, 120 s at 30 uL/min, 300 s dissociation; 20 C; 10 mM HEPES pH 7.4, 150 mM NaCl, 3 mM EDTA, 0.005% Tween-20, 2 mg/mL dextran, 1 mg/mL salmon sperm DNA; global 1:1 interaction model

Substance | Kd [1] [nM] | Kd [2] [nM]
PfRH5 (from UniProt Q8IFM5) | 1000 | –
Plasmodium falciparum reticulocyte-binding protein homolog 5 with C-terminal C-tag (EPEA) (from UniProt Q8IFM5 26-526) (domain or fragment) | – | 390
Plasmodium falciparum reticulocyte-binding protein homolog 5 with C-terminal hexa-histidine tag (from UniProt Q8IFM5 26-526) (domain or fragment) | – | 830
